T1: StTGA2.3 (Solanum tuberosum cv. Rywal, UniProt A0A9F1U446 1-327)
T1 sequence: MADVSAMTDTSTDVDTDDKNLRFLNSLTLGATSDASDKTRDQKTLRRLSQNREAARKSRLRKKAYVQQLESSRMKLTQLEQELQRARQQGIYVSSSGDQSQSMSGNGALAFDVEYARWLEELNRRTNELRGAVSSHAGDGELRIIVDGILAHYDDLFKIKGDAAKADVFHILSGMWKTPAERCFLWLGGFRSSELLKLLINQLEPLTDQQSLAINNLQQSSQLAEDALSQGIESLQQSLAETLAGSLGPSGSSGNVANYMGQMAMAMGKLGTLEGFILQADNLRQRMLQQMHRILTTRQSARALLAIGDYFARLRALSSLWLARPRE

T2: StTGA2.1 (mini-TGA) (Solanum tuberosum cv. Rywal, UniProt A0A9F1U434 1-270)
T2 sequence: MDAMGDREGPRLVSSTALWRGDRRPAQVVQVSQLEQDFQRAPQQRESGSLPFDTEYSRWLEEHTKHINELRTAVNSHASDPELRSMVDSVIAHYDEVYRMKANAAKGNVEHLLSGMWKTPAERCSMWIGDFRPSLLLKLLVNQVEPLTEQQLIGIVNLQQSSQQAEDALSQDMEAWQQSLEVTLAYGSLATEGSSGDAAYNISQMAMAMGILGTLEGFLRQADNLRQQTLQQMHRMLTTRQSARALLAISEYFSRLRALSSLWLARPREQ

T3: StTGA2.3;StTGA2.1 (mini-TGA) (Solanum tuberosum cv. Rywal;Solanum …, UniProt A0A9F1U446;A0A9F1U434 1-327;1-270, |)
T3 sequence 1: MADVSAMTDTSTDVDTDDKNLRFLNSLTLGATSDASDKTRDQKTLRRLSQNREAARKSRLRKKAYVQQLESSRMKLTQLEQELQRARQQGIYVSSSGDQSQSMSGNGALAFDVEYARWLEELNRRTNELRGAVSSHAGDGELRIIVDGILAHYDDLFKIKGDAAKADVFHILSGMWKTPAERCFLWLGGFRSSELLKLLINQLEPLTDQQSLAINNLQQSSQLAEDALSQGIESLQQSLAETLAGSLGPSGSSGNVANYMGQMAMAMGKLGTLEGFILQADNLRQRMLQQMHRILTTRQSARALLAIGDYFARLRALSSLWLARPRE
T3 sequence 2: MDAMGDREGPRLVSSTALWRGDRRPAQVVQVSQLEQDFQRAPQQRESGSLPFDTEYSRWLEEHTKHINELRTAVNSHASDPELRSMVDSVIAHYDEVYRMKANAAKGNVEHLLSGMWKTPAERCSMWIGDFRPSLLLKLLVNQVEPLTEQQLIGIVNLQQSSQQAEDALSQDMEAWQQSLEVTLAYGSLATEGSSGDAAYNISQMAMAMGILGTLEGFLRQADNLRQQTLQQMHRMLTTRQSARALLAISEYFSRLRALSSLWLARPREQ


Legend:
[1] = biological target: HA-tagged StTGA2.3, expressed in N. benthamiana (potato (Solanum tuberosum))
StTGA2.3 [2] = biological target: T1, StTGA2.3; experiment: SPR; 1 mM Mg2+; dose-dependent response; SPR Biacore T200, 25 C, 25 mM Tris pH 7.4, 140 mM NaCl (180 mM for StTGA2.1 alone), 1 mM MgCl2, 0.005% P20; conditions: protein: ivt; tags: C-terminal GS peptide; chain copies: 2; 5' overhang 15 nt on strand 1
StTGA2.1 (mini-TGA) = biological target: T2, StTGA2.1 (mini-TGA); experiment: SPR; 18.75-300 nM protein; 180 mM NaCl; 1 mM Mg2+; SPR Biacore T200, 25 C, 25 mM Tris pH 7.4, 140 mM NaCl (180 mM for StTGA2.1 alone), 1 mM MgCl2, 0.005% P20; conditions: protein: recombinant; tags: N-terminal His6; chain copies: 2; 5' overhang 15 nt on strand 1
[3] = biological target: T3, StTGA2.3;StTGA2.1 (mini-TGA); experiment: SPR; premixed with 300 nM StTGA2.1; higher response than StTGA2.3 alone; SPR Biacore T200, 25 C, 25 mM Tris pH 7.4, 140 mM NaCl (180 mM for StTGA2.1 alone), 1 mM MgCl2, 0.005% P20; conditions: protein: ivt;recombinant; tags: C-terminal GS peptide;N-terminal His6; copies: 1;1; 5' overhang 15 nt on strand 1
StTGA2.3 [4] = biological target: T1, StTGA2.3; experiment: SPR; 1 mM Mg2+; interaction negligible; SPR Biacore T200, 25 C, 25 mM Tris pH 7.4, 140 mM NaCl (180 mM for StTGA2.1 alone), 1 mM MgCl2, 0.005% P20; conditions: protein: ivt; tags: C-terminal GS peptide; chain copies: 2; 5' overhang 15 nt on strand 1
[5] = biological target: the molecule itself; experiment: SEC; His6-tagged StTGA2.1; oligomeric state from elution volume against the Gel Filtration LMW calibration kit; 30 mM Tris pH 7.5, 400 mM NaCl

Molecule	binding result (StTGA2.3 [2])	binding result (StTGA2.1 (mini-TGA))	binding result [3]	binding result (StTGA2.3 [4])	other results
StTGA2.1, GFP- or HA-tagged, expressed in N. benthamiana (natural protein)	–	–	–	–	StPRX07::LucF promoter activity (luciferase transactivation assay) in N. benthamiana leaves coexpressing GFP-tagged StTGA2.1 and BFP-tagged StTGA2.3, compared to control [1]: > 2 fold
PRX07p_2 (dsDNA) DNA 1: GTTACTACTCGAGCGTTAGGGGTGACGTTTCCAAT DNA 2: ATTGGAAACGTCACCCCTAA	binds	no binding	binds	–	–
PRX15p_1 (dsDNA) DNA 1: GTTACTACTCGAGCGTTTAATAATGATGACATTTG DNA 2: CAAATGTCATCATTATTAAA	–	no binding	–	no binding	–
PRX07p_1 (dsDNA) DNA 1: GTTACTACTCGAGCGTGTGCCCAACGTCACAATCC DNA 2: GGATTGTGACGTTGGGCACA	binds	no binding	binds	–	–
PRX46p (dsDNA) DNA 1: GTTACTACTCGAGCGTGAACCTGAGGTCAACCGTT DNA 2: AACGGTTGACCTCAGGTTCA	–	no binding	–	no binding	–
His6-tagged StTGA2.1, recombinant (natural protein, potato (Solanum tuberosum), UniProt A0A9F1U434 1-270, looked up, StTGA2.1, potato (Solanum tuberosum) cultivar Rywal; full-length cds in pMCSG7; C-terminal region printed as aa 47-240; Dimer by SEC elution volume; The tag is removable by TEV protease; not shown: His6, N-terminal, kept) MDAMGDREGPRLVSSTALWRGDRRPAQVVQVSQLEQDFQRAPQQRESGSLPFDTEYSRWLEEHTKHINELRTAVNSHASDPELRSMVDSVIAHYDEVYRMKANAAKGNVEHLLSGMWKTPAERCSMWIGDFRPSLLLKLLVNQVEPLTEQQLIGIVNLQQSSQQAEDALSQDMEAWQQSLEVTLAYGSLATEGSSGDAAYNISQMAMAMGILGTLEGFLRQADNLRQQTLQQMHRMLTTRQSARALLAISEYFSRLRALSSLWLARPREQ	–	–	–	–	stoichiometry N [5]: 2

Source: publication PMC10022624, “A mini-TGA protein modulates gene expression through heterogeneous association with transcription factors” (Plant Physiology, 2022)
